# From patent publication US20230257454A1 (STAIDSON BEIJING BIOPHARMACEUTICALS, published 2023)
# T1: human C5a (source not stated) (human, UniProt P01031 678-751)
# T1 construct: C5a as used in the ROS release assay (5 nM) and injected in the mouse chemotaxis model
# T1 sequence: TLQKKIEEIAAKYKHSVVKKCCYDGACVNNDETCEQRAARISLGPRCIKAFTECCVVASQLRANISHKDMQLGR
# T2: C5a-T33A
# T2 single chain: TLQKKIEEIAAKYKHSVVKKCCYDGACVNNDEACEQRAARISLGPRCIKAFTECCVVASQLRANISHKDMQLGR
# T3: C5a-R62A
# T3 single chain: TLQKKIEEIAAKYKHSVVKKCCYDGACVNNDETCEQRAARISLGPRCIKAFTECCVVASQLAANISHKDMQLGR
# T4: C5a-N30A
# T4 single chain: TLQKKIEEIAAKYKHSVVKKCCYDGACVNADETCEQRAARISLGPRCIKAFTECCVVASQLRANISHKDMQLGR
# T5: C5a-Q36A
# T5 single chain: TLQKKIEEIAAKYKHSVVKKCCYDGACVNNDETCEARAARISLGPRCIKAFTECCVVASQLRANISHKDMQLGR
# T6: C5a-E35A
# T6 single chain: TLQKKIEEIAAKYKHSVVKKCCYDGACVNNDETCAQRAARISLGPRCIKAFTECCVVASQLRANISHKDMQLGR
# T7: C5a-L2A
# T7 single chain: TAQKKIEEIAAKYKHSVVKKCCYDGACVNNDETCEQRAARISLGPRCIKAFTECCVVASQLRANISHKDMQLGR
# T8: C5a-T1A
# T8 single chain: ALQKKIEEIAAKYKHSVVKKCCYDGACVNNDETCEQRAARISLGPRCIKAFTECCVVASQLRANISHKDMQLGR
# T9: C5a-K4A
# T9 single chain: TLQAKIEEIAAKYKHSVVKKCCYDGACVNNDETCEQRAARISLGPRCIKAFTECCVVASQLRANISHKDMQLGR
# T10: C5a-K12A
# T10 single chain: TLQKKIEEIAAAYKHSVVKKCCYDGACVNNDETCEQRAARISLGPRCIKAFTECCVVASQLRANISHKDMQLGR
# T11: C5a-E7A
# T11 single chain: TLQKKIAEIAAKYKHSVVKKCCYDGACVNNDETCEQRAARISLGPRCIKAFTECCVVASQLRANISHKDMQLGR
# T12: C5a-K5A
# T12 single chain: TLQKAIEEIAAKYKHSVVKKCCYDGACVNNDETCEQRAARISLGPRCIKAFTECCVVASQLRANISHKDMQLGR
# T13: C5a-Q3A
# T13 single chain: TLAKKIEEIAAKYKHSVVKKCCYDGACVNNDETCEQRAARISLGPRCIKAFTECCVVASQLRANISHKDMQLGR
# Columns and labels:
# [1] = molecular target: T1, human C5a (source not stated); test: ELISA on the coated protein, biotinylated Cab42 titrated, SA-HRP, OD410
# [2] = molecular target: T2, C5a-T33A; test: ELISA on the coated C5a protein, antibody titrated, OD410
# [3] = molecular target: T3, C5a-R62A; test: as above
# [4] = molecular target: T4, C5a-N30A; test: as above
# [5] = molecular target: T5, C5a-Q36A; test: as above
# [6] = molecular target: T6, C5a-E35A; test: as above
# [7] = molecular target: T7, C5a-L2A; test: as above
# [8] = molecular target: T8, C5a-T1A; test: as above
# [9] = molecular target: T9, C5a-K4A; test: as above
# [10] = molecular target: T10, C5a-K12A; test: as above
# [11] = molecular target: T11, C5a-E7A; test: as above
# [12] = molecular target: T12, C5a-K5A; test: as above
# [13] = molecular target: T13, C5a-Q3A; test: as above
binder,measurement,setting,value
"Cab42-IgG1 (antibody, V domains shown, Full-length human IgG1; It was biotinylated in the peptide-Fc ELISA) VH: EMQLVESGGGLVQPGGSLRLSCAASGFTFSDYYMQWVRQAPGKGPEWVGLIRNKAVGETTQYAASVKGRFTISRDDSKNSVYLQMNSLKTEDTAVYYCVSRAGPPGLSWGQGVLVTVSS VL: DIVMTQSPLSLPVTPGEPASISCRSSQSLLASDAYNYIDWYLQKPGQSPQLLIYGGSNRASGVPDRFSGSGSGTDFTLKISRVEAEDVGVYFCLQHRALPPTFGQGTKLEIK",EC50 (read off the curve),[1],~30 ng/w
same,binding result,[2],binds
same,binding result,[3],binds
same,binding result,[4],binds
same,binding result,[5],binds
same,binding result,[6],binds
same,binding result,[7],binds
same,binding result,[8],binds
same,binding result,[9],binds
same,binding result,[10],binds
same,binding result,[11],binds
same,binding result,[12],binds
same,binding result,[13],binds
